Values quoted from earlier work as cited in patent US6444791B1, “Methods and compositions for the treatment of keratoconus using protease inhibitors” (K-Quay Enterprises, LLC, priority 1999, dated 2002).
Like-named read-outs stand apart in the source and are kept apart here. Non-standard residues stand in square brackets, D forms with d. Residues, ends and D or L forms follow the SMILES beside them. No end group written: not given here. *: point of attachment. Sta = CC(C)C[C@H](N)[C@@H](O)CC(=O)O; Isovaleryl = CC(C)CC(=O)*

Assays:
[1] = biological target: T1, gelatinase, type IV collagenase (Homo sapiens, UniProt P08253); conditions: keratoconus keratocyte culture media
T1 construct: host or cells: keratoconus keratocyte culture media (endogenous, secreted)
T1 sequence (P08253 110-660): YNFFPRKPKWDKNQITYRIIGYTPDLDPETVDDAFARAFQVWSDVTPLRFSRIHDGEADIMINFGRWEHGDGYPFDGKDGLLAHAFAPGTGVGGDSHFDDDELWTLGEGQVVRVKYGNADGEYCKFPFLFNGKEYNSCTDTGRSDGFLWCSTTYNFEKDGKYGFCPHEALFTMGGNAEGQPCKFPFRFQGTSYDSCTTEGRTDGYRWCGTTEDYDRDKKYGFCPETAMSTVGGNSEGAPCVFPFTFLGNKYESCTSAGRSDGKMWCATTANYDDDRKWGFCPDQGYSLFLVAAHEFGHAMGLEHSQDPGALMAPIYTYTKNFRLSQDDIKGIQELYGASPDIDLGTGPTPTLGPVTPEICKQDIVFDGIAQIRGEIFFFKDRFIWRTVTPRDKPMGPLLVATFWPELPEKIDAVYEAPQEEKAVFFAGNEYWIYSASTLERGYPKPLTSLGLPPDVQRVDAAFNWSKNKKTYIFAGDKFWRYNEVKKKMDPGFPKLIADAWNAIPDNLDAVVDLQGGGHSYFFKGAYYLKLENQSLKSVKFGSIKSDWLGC

[2] = test system: gelatinolytic and caseinolytic activities; conditions: in situ zymography, healthy control and keratoconic specimens
proteinase-3 = biological target: T2, proteinase-3 (Homo sapiens, UniProt P24158)
T2 sequence (P24158 28-248): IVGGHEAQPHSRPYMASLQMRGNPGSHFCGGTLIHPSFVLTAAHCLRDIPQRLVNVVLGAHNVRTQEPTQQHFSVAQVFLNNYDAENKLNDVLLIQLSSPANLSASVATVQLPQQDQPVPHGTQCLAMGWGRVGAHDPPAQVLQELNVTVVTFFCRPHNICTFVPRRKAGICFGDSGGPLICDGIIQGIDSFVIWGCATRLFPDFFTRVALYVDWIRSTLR

elastase [3] = biological target: T3, elastase (Homo sapiens, UniProt P08246); conditions: R-type tear fluid; from calculated molar ratios of serpins
T3 sequence (P08246 30-267): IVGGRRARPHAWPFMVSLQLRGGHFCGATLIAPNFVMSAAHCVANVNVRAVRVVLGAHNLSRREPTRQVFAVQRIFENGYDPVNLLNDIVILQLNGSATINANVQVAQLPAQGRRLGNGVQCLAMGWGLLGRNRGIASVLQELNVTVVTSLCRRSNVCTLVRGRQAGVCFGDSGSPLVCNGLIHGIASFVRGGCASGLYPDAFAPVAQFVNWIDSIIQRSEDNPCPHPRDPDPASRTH

elastase [4] = biological target: T3, elastase
cathepsin G = biological target: T4, cathepsin G (Homo sapiens, UniProt P08311)
T4 sequence (P08311 21-244): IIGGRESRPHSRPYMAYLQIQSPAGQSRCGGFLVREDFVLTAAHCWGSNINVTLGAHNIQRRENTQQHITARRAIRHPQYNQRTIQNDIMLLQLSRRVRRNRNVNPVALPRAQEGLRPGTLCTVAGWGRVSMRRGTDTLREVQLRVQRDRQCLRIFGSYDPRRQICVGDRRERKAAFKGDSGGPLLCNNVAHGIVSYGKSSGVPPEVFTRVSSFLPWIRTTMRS

HIV virus = conditions: cell culture

In the case of `O[C@H](CS)[C@H](O)CS` (racemic) [dithiothreitol], the “effect on gelatinolytic activity” value [1] is listed as “inactivated”.

For `c1cnc2c(c1)ccc1cccnc12` [1, 10-phenanthroline], the “effect on digestion of gelatin and casein” value (“effect on digestion” below) [2] is given as “failed to block”.

For `OCCS` [B-mercaptoethanol], the “effect on gelatinolytic activity” value [1] is given as “inactivated”.

In the case of `CC(C)C[C@H](NC(=O)[C@H]1O[C@@H]1C(=O)O)C(=O)NCCCCN=C(N)N` [E-64], the “effect on digestion” value [2] is given as “substantially reduced”.

In the case of `CC(=O)N[C@@H](CC(C)C)C(=O)N[C@@H](CC(C)C)C(=O)N[C@H](C=O)CCCNC(=N)N` [leupeptin], the “effect on digestion” value [2] is listed as “substantially reduced”.

In the case of `CC(C)CC(=O)N[C@H](C(=O)N[C@H](C(=O)N[C@@H](CC(C)C)[C@@H](O)CC(=O)N[C@@H](C)C(=O)N[C@@H](CC(C)C)[C@@H](O)CC(=O)O)C(C)C)C(C)C` [pepstatin] (Isovaleryl-VV[Sta]A[Sta]-OH), the “effect on digestion” value [2] is listed as “failed to block”.

In the case of `O=S(=O)(F)Cc1ccccc1` [phenylmethyl sulfonyl fluoride], the “effect on digestion” value [2] is listed as “substantially reduced” and the “effect on gelatinolytic activity” value ([1]; lmM) is listed as “not effected”.

For “alp1: α-1 protease inhibitor, a major protease inhibitor in human plasma, glycoprotein of 53 kDa”, the “inhibition of proteinase-3” value (proteinase-3) is given as “potent inhibitors”.

In the case of “elafin: protease inhibitor (6-9 kDa), potent inhibitor of proteinase-3 (AQEPVKGPVSTKPGSCPIILIRCAMLNPPNRCLKDTDCPGIKKCCEGSCGMACFVPQ; ends and bridges not checked; cysteine pairing not given here; UniProt P19957 61-117, looked up)”, the “inhibition of proteinase-3” value (proteinase-3) is given as “potent inhibitors”.

B1: α2-M: α2-macroglobulin, high-molecular-weight (718 kD) homotetrameric glycoprotein protease inhibitor (protein, UniProt P01023 24-1474, looked up)
Alpha-2-macroglobulin: SVSGKPQYMVLVPSLLHTETTEKGCVLLSYLNETVTVSASLESVRGNRSLFTDLEAENDVLHCVAFAVPKSSSNEEVMFLTVQVKGPTQEFKKRTTVMVKNEDSLVFVQTDKSIYKPGQTVKFRVVSMDENFHPLNELIPLVYIQDPKGNRIAQWQSFQLEGGLKQFSFPLSSEPFQGSYKVVVQKKSGGRTEHPFTVEEFVLPKFEVQVTVPKIITILEEEMNVSVCGLYTYGKPVPGHVTVSICRKYSDASDCHGEDSQAFCEKFSGQLNSHGCFYQQVKTKVFQLKRKEYEMKLHTEAQIQEEGTVVELTGRQSSEITRTITKLSFVKVDSHFRQGIPFFGQVRLVDGKGVPIPNKVIFIRGNEANYYSNATTDEHGLVQFSINTTNVMGTSLTVRVNYKDRSPCYGYQWVSEEHEEAHHTAYLVFSPSKSFVHLEPMSHELPCGHTQTVQAHYILNGGTLLGLKKLSFYYLIMAKGGIVRTGTHGLLVKQEDMKGHFSISIPVKSDIAPVARLLIYAVLPTGDVIGDSAKYDVENCLANKVDLSFSPSQSLPASHAHLRVTAAPQSVCALRAVDQSVLLMKPDAELSASSVYNLLPEKDLTGFPGPLNDQDNEDCINRHNVYINGITYTPVSSTNEKDMYSFLEDMGLKAFTNSKIRKPKMCPQLQQYEMHGPEGLRVGFYESDVMGRGHARLVHVEEPHTETVRKYFPETWIWDLVVVNSAGVAEVGVTVPDTITEWKAGAFCLSEDAGLGISSTASLRAFQPFFVELTMPYSVIRGEAFTLKATVLNYLPKCIRVSVQLEASPAFLAVPVEKEQAPHCICANGRQTVSWAVTPKSLGNVNFTVSAEALESQELCGTEVPSVPEHGRKDTVIKPLLVEPEGLEKETTFNSLLCPSGGEVSEELSLKLPPNVVEESARASVSVLGDILGSAMQNTQNLLQMPYGCGEQNMVLFAPNIYVLDYLNETQQLTPEIKSKAIGYLNTGYQRQLNYKHYDGSYSTFGERYGRNQGNTWLTAFVLKTFAQARAYIFIDEAHITQALIWLSQRQKDNGCFRSSGSLLNNAIKGGVEDEVTLSAYITIALLEIPLTVTHPVVRNALFCLESAWKTAQEGDHGSHVYTKALLAYAFALAGNQDKRKEVLKSLNEEAVKKDNSVHWERPQKPKAPVGHFYEPQAPSAEVEMTSYVLLAYLTAQPAPTSEDLTSATNIVKWITKQQNAQGGFSSTQDTVVALHALSKYGAATFTRTGKAAQVTIQSSGTFSSKFQVDNNNRLLLQQVSLPELPGEYSMKVTGEGCVYLQTSLKYNILPEKEEFPFALGVQTLPQTCDEPKAHTSFQISLSVSYTGSRSASNMAIVDVKMVSGFIPLKPTVKMLERSNHVSRTEVSSNHVLIYLDKVSNQTLSLFFTVLQDVPVRDLKPAIVKVYDYYETDEFAIAEYNAPCSKDLGNA
For B1, the “rate of reaction with PMN cell proteases” value (PMN cell proteases) is given as “relatively slow rate”.

B2: SLPI: secretory leucocyte protease inhibitor, an 11.7 kDa elastase and cathepsin G specific inhibitor (protein, UniProt P03973 26-132, looked up)
Antileukoproteinase: SGKSFKAGVCPPKKSAQCLRYKKPECQSDWQCPGKKRCCPDTCGIKCLDPVDTPNPTRRKPGKCPVTYGQCLMLNPPNFCEMDGQCKRDLKCCMGMCGKSCVSPVKA
For B2, the “share of the total elastase inhibitory activity” value (elastase [3]) is given as at least 95%, the inhibition of elastase (elastase [4]) is given as “potent inhibitor” and the “inhibition of cathepsin G” value (cathepsin G) is given as “potent inhibitor”. The “inhibition of proteinase-3” value (proteinase-3) was “no capacity to inhibit”, the “cytotoxicity to E. coli” value (E. coli) was “cytotoxic” and the “cytotoxicity to Staphylococcus aureus” value (Staphylococcus aureus) was “cytotoxic”. For the same molecule, the “effect on transmission and replication of HIV virus” value (HIV virus) was “inhibits”.
